Measured values from EP1728864A1 (dated 2006).

T1: human gp39 (cell-expressed, full length) (human, UniProt P29965 1-261)
T1 construct: whole, on cells; also called CD40 ligand; CD40-L
T1 sequence (looked up): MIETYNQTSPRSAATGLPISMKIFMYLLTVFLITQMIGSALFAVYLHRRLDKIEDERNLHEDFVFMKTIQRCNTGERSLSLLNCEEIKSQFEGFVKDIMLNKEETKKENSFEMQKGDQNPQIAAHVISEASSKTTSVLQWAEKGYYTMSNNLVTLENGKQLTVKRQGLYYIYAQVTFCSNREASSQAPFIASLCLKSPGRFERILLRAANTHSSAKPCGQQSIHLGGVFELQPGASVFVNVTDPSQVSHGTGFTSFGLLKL


Columns and labels:
[1] = biological target: sgp39 mutant K143/A (murine; human); assay: ELISA on captured mutant sgp39
[2] = biological target: sgp39 mutant N180/A (murine; human); assay: ELISA on captured mutant sgp39
[3] = biological target: sgp39 mutant F201/A-E202/A (murine; human); assay: ELISA on captured mutant sgp39
[4] = biological target: sgp39 mutant Y145/A (murine; human); assay: ELISA on captured mutant sgp39
[5] = biological target: sgp39 mutant E129/A (murine; human); assay: ELISA on captured mutant sgp39
[6] = biological target: sgp39 mutant S131/A-T135/A (murine; human); assay: ELISA on captured mutant sgp39
[7] = biological target: T1, human gp39 (cell-expressed, full length); assay: saturation binding of radiolabeled protein to gp39+ Jurkat cells
[8] = biological target: T1, human gp39 (cell-expressed, full length); assay: cell-based or functional assay
[9] = biological target: T1, human gp39 (cell-expressed, full length); assay: saturation binding of iodinated protein to BMS-10 Jurkat cells

Row | % of binding to wild-type sgp39 [1] | % of binding to wild-type sgp39 [2] | % of binding to wild-type sgp39 [3] | % of binding to wild-type sgp39 [4] | % of binding to wild-type sgp39 [5] | % of binding to wild-type sgp39 [6] | fold greater affinity than 106 sFv-Ig [7] | IgG synthesis, % of medium only control, 0.94 x10^12 binding sites/ml [8] | IgG synthesis, % of medium only control, 1.88 x10^12 binding sites/ml [8] | IgG synthesis, % of medium only control, 3.76 x10^12 binding sites/ml [8] | IgG synthesis, % of medium only control, 7.53 x10^12 binding sites/ml [8] | IgM synthesis, % of medium only control, 0.94 x10^12 binding sites/ml [8] | IgM synthesis, % of medium only control, 1.88 x10^12 binding sites/ml [8] | IgM synthesis, % of medium only control, 3.76 x10^12 binding sites/ml [8] | IgM synthesis, % of medium only control, 7.53 x10^12 binding sites/ml [8] | Kd [9] | Binder
1 | 52% | 144% | 9% | 124% | 130% | 113% | ~3 fold | 37% | 26% | 24% | 11% | 34% | 27% | 19% | 25% | 0.4 nM | 39-1.106 (antibody, mouse IgG1, V domains shown, murine IgG1, kappa) VH: EVKLVESGGGLVKPGGSLKLSCTTSGFTFNNYAMSWVRQTPEKRLEWVASISSGDSTYYFDSVRGRFTISRDNARNILYLQMSSLRSEDTAMYYCARHYDYDSYAMDYWGQGTSVTVS VL: DIQMTQSPASLSASVGETVTITCRASETIYSYLAWYQQKQGRSPQLLVYNAKTLAEGVPSRFSGSGSGTQFSLKINSLQPEDFGSYYCQHHYNTPLTFGTGTKLELKR
2 | 5% | 93% | 112% | 106% | 70% | 89% |  | 60% | 11% | 17% | 12% | 64% | 29% | 24% | 14% |  | 39-1.7 (antibody, mouse IgG2b, V domains shown) VH: EVQLQQSGPELVKPGASVKMSCKASGYTFTDYYMKWVKQSHGKSLEWIGNINPNNGDTFFNQKFEGKATLTVDKSSSAAYMQLNSLTSEDSAVKKCARGPGTNYFDYWGQGTTLTVSS VL: DIVLTQSPVSLAVSLGQRVTISCRASQSVSSSTNSYMHWYQQKPGQPPKLLIKYASNLESGVPARFSGSGSGTDFTLNIHPVEEEDTATYYCQHSWEIPFTFGSGTKLEIRR
3 |  |  |  |  |  |  |  | 21% | 10% | 12% | 14% | 19% | 12% | 12% | 12% | 1.6 nM | 106 sFv-Ig (scFv, VL-linker-VH-human Ig, monomeric; L6 V kappa leader used for secretion; not shown: hinge-CH2-CH3 of human IgG1) scFv: DIQMTQSPASLSASVGETVTITCRASETIYSYLAWYQQKQGRSPQLLVYNAKTLAEGVPSRFSGSGSGTQFSLKINSLQPEDFGSYYCQHHYNTPLTFGTGTKLELKRGGGGSGGGGSGGGGSEVKLVESGGGLVKPGGSLKLSCTTSGFTFNNYAMSWVRQTPEKRLEWVASISSGDSTYYFDSVRGRFTISRDNARNILYLQMSSLRSEDTAMYYCARHYDYDSYAMDYWGQGTSVTVS
